Laboratory results reported in publication PMC2114023 (The Journal of Cell Biology, 1985).

Target: clathrin heavy chain (bovine brain) (bovine, UniProt P49951 1-1675, 3H-labelled by reductive methylation)
Experiment: co-IP

clathrin heavy chain (bovine brain), sequence (P49951 whole entry): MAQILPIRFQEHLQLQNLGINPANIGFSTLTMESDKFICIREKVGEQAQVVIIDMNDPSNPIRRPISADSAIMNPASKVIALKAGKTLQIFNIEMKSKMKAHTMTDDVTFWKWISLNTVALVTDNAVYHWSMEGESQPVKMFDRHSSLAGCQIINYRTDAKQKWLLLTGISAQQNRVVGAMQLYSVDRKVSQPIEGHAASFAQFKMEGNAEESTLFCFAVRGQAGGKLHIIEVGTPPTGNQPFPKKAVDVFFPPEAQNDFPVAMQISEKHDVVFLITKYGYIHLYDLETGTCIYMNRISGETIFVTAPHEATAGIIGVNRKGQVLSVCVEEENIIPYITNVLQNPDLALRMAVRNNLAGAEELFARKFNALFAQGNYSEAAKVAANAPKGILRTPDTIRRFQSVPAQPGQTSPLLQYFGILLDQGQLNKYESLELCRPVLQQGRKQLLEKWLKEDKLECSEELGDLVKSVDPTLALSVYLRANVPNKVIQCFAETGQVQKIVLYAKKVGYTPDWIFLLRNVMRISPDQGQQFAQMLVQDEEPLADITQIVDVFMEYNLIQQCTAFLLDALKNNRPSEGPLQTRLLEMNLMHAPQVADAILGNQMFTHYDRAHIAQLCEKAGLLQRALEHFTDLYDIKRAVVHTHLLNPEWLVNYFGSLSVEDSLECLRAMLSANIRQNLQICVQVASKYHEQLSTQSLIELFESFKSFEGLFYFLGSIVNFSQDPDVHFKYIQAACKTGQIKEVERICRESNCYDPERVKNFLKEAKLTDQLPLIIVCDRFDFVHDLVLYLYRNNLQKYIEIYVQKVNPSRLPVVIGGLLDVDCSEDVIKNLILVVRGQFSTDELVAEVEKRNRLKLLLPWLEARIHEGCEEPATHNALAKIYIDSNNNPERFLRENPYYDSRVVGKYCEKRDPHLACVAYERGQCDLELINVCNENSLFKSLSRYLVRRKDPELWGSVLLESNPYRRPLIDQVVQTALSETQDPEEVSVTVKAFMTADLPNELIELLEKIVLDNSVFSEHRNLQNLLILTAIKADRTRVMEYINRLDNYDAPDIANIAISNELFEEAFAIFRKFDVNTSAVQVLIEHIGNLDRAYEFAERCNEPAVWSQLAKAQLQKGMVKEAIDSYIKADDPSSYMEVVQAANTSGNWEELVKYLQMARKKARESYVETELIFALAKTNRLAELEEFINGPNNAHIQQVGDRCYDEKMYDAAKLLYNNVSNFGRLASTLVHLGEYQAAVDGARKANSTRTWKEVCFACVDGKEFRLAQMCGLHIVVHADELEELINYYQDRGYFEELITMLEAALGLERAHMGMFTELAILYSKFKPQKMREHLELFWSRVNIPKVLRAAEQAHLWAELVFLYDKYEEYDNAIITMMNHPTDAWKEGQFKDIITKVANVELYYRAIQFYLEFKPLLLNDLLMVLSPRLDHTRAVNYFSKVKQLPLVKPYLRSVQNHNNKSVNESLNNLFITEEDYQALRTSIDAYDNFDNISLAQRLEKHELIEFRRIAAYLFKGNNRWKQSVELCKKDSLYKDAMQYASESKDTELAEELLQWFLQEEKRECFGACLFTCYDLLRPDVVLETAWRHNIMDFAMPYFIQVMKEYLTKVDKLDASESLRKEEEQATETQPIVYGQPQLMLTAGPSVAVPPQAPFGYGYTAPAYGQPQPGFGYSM

B1: clathrin light chain LCa (bovine brain) (natural protein, UniProt P04973 1-243, looked up)
chain: MAELDPFGVPAGGPALGNGVAGEEDPAAAFLAQQESEIAGIENDEAFAILDGGAPGSQPHGEPPGIPDAVDGVTNGDYYQESNGPTDSYAAISQVDRLQSEPESIRKWREEQTERLEALDANSRKQEAEWKEKAIKELDEWYARQDEQLQKTKANNRVADEAFYKQPFADVIGYVTNINHPCYSLEQAAEEAFVNDIEESSPGTEWERVARLCDFNPKSSKQAKDVSRMRSVLISLKQAPLVH
  binding result: binds
